Measurements taken from publication doi:10.1101/659037.

Experiments:
[1] = biological target: rPrP90-231 (globular domain of recombinant prion protein) (murine, UniProt P04925 90-231); assay: ITC
[2] = biological target: rPrP23-231 (full-length recombinant prion protein) (murine, UniProt P04925 23-231); assay: ITC

Binder | Kd [1] | Kd [2]
CCGCGTACAATCGAGCTCGGGTGTC (structured_DNA) [A1] | 232 nM | 838 nM
TGGTGGTAACAGACCCTTCCACGGC (ssDNA) [A2] | 1930 nM | 1470 nM
